Measured values taken from patent publication US20240352105A1, “COMPOSITIONS AND METHODS FOR NEUTRALIZING ANTIGENS” (PACAGEN, INC, priority 2023, published 2024).
Where “and” joins values, the source holds several entries; their conditions need not be identical. Equal values may be shown once. No end group written: not given here.

How the values were obtained:
[1] = tested on: known Der p1 antibody (clone 10B9); experiment: Recombinant Der p1-His ELISA binding assay
Experimental: In order to obtain single variable domain on heavy chain, i.e., VHH, specific for dust mite allergen Der p1, a recombinant His-tagged Der p1 was prepared, which reached high purity, as shown via SDS-Page Western blotting in FIG. 8. To confirm this, an ELISA was performed measuring optical density when the recombinant Der p1-His is incubated with a known Der p1 antibody (clone 10B9). As summarized in Table 11, the recombinant Der p1-His was effectively bound by the antibody.

recombinant Fel d1-His = molecular target: T1, recombinant Fel d1-His (Felis catus, UniProt P30438+P30440); experiment: Recombinant Fel D1 His binding assay with positive control antibodies; design: species or system cat
T1 construct: His; made in house
T1 sequence (P30438 23-92): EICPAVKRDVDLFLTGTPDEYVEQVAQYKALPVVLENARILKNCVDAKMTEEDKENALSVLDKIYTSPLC
T1 sequence (P30440 18-109): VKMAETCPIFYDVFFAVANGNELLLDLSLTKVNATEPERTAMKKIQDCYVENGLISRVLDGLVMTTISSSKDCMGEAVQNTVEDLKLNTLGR
Experimental: In order to obtain single variable domain on heavy chain, i.e., VHH, specific for cat allergen Fel D1, a recombinant His-tagged Fel D1 was prepared, which reached high purity, as shown via SDS-Page Western blotting in FIG. 14. To confirm this, an ELISA was performed measuring optical density when the recombinant Fel d1-His is incubated with two known Fel D1 antibodies which are summarized in Table 18. As summarized in Table 19, the recombinant Fel d1-His was effectively bound by both antibodies.

Fel D1 = experiment: ELISA binding assay of anti-Fel d1 VHH clones on Fel D1 epitopes; design: species or system cat; settings: Epitope Recognized FAVANGNELLLDLS (SEQ ID NO: 59)
Experimental: 2 microgram per milliliter (μg/mL) target antigen is coated in a 96-well plate and ELISA assay is performed after incubation with candidate VHHs. The binding EC50 of each clone is calculated using Prism GraphPad. The positive control antibody is involved as an internal control.
Four distinct epitopes of Fel D1 were selected to be used for further identification. Peptides were synthesized for the four epitopes for VHH identification.
Isolated VHH clones were further validated by performing an ELISA assay as described in Example 1. Binding results are shown in FIG. 15B-15D for the epitope of SEQ ID NO: 61. Binding results are shown in FIG. 16 for the epitope of SEQ ID NO: 59. Binding results are shown in FIG. 17A-17E for the epitope of SEQ ID NO: 60. Binding results are shown in FIG. 18 for the epitope of SEQ ID NO: 58.

[2] = Thermostability (Tm, Tonset, Tagg) by Nanotemper DSF; type: physicochemical; design: key to Tm2 / Tagg / Tm1 / Tm / Tm3 / Tonset / Tonset ø (mean) / Tagg ø (mean): temperatures in °C
Procedure, shortened: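 Isolated VHH clones were heated from 20 °C to 95 °C at 1 °C/min using DSF. Tm, Tonset and Tagg were derived from the thermal curves. Where several melting transitions occurred, each was reported in order (Tm1, Tm2, etc.).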

[3] = molecular target: T2, recombinant His-tagged Der p1 (dust mite, UniProt P08176 99-320, limits assumed); experiment: ELISA, Der p1 on plate, biotinylated peptide at 0.123, duplicate 1
T2 construct: Recombinant His-tagged protein made by the applicant; also called Der p1-His; Der pl; not shown: His tag
T2 sequence (looked up): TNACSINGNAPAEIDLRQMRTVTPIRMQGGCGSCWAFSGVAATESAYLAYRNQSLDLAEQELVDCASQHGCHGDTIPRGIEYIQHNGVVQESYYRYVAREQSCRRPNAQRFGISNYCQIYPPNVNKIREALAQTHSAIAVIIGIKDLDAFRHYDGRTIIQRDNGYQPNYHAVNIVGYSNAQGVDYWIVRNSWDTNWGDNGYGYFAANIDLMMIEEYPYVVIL
Experimental: (§1) An ELISA was used to validate identified peptides. Der p1 was bound to the bottom of a plate. Different concentrations of the chosen (biotinylated) peptides were added and then washed. Then, HRP-streptavidin (which binds to the biotin) was added and an OD at 450 nm is measured. Duplicate measurements are separated by commas.

[4] = molecular target: T2, recombinant His-tagged Der p1; experiment: ELISA, Der p1 on plate, biotinylated peptide at 30, duplicate 2
Experimental: as §1

[5] = molecular target: T2, recombinant His-tagged Der p1; experiment: ELISA, Der p1 on plate, biotinylated peptide at 3.333, duplicate 2
Experimental: as §1

[6] = molecular target: T2, recombinant His-tagged Der p1; experiment: ELISA, Der p1 on plate, biotinylated peptide at 1.111, duplicate 1
Experimental: as §1

[7] = molecular target: T2, recombinant His-tagged Der p1; experiment: ELISA, Der p1 on plate, biotinylated peptide at 0.041, duplicate 1
Experimental: as §1

[8] = molecular target: T2, recombinant His-tagged Der p1; experiment: ELISA, Der p1 on plate, biotinylated peptide at 3.333, duplicate 1
Experimental: as §1

[9] = molecular target: T2, recombinant His-tagged Der p1; experiment: ELISA, Der p1 on plate, biotinylated peptide at 30, duplicate 1
Experimental: as §1

[10] = molecular target: T2, recombinant His-tagged Der p1; experiment: ELISA, Der p1 on plate, biotinylated peptide at 0.123, duplicate 2
Experimental: as §1

[11] = molecular target: T2, recombinant His-tagged Der p1; experiment: ELISA, Der p1 on plate, biotinylated peptide at 10, duplicate 1
Experimental: as §1

[12] = molecular target: T2, recombinant His-tagged Der p1; experiment: ELISA, Der p1 on plate, biotinylated peptide at 1.111, duplicate 2
Experimental: as §1

[13] = molecular target: T2, recombinant His-tagged Der p1; experiment: ELISA, Der p1 on plate, biotinylated peptide at 0.370, duplicate 1
Experimental: as §1

[14] = molecular target: T2, recombinant His-tagged Der p1; experiment: ELISA, Der p1 on plate, biotinylated peptide at 10, duplicate 2
Experimental: as §1

[15] = molecular target: T2, recombinant His-tagged Der p1; experiment: ELISA, Der p1 on plate, biotinylated peptide at 0.041, duplicate 2
Experimental: as §1

[16] = molecular target: T2, recombinant His-tagged Der p1; experiment: ELISA, Der p1 on plate, biotinylated peptide at 0.370, duplicate 2
Experimental: as §1

[17] = Volume of Fel D1-His 10 μL (concentration ~1 μg/μL)
[18] = Volume of Fel D1-His 50 μL (concentration ~1 μg/μL)
[19] = Volume of Fel D1-His 100 μL (concentration ~1 μg/μL)
[20] = Average of two replicates, anti-Fel d1 VHH
[21] = Average of two replicates, anti-Fel d1 VHH, in °C (unit assumed)
[22] = Replicate 1, in °C (unit assumed)
[23] = Replicate 2, in °C (unit assumed)

B1: Der p1-His: recombinant His-tagged dust mite allergen Der p1 (protein)
chain: TNACSINGNAPAEIDLRQMRTVTPIRMQGGCGSCWAFSGVAATESAYLAYRNQSLDLAEQELVDCASQHGCHGDTIPRGIEYIQHNGVVQESYYRYVAREQSCRRPNAQRFGISNYCQIYPPNVNKIREALAQTHSAIAVIIGIKDLDAFRHYDGRTIIQRDNGYQPNYHAVNIVGYSNAQGVDYWIVRNSWDTNWGDNGYGYFAANIDLMMIEEYPYVVIL
modifications: left off: small tags and cut ends
OD at 450 nm ([1]; Der p1-His Concentration 0.00064 μg/mL): 0.13 and 0.12 | OD at 450 nm ([1]; Der p1-His Concentration 0.016 μg/mL): 0.20 and 0.17 | OD at 450 nm ([1]; Der p1-His Concentration 0.08 μg/mL): 0.58 and 0.49 | OD at 450 nm ([1]; Der p1-His Concentration 0.4 μg/mL): 1.80 and 1.87 | OD at 450 nm ([1]; Der p1-His Concentration 2 μg/mL): 4.03 and 4.31 | OD at 450 nm ([1]; Der p1-His Concentration 10 μg/mL): 4.37 and 4.40

B2: 370VH + 378VL: known Fel D1 positive control antibody, heavy chain SEQ ID NO: 64, light chain SEQ ID NO: 65 (antibody, V domains shown)
VH: EVQLVESGGGLAQPGGSLRLSCAASGFTFNNYAMTWVRQAPGKGLDWVSAISDSGRSTFSADSVKGRFTISRDNSKNTLYLQMDSLRAEDTALYYCAKHRNWNYPVFDYWGQGTLVTVSS
VL: DIQLTQSPSFLSASVGDRVTITCWASQGISSYLAWYQQKPGKAPKLLIYSASTLQSGVPSRFSGSGSGTEFTLTISSLQPEDFATYYCQQLNSYPFTFGPGTKVDIK
OD450 Using Positive Control (recombinant Fel d1-His; [17]): 4.47 and 4.44 | OD450 Using Positive Control (recombinant Fel d1-His; [18]): 4.55 and 4.53 | OD450 Using Positive Control (recombinant Fel d1-His; [19]): 4.60

B3: 18VH + 378VL: known Fel D1 positive control antibody, heavy chain SEQ ID NO: 66, light chain SEQ ID NO: 65 (antibody, V domains shown)
VH: EVQLVESGGGLVKPGGSLRLSCAASGFTFRNYNINWVRQAPGKGLEWVSLISGSSSYIYYADSVKGRFTVSRDNAKNSLYLQMNSLRAEDTAVYYCARRTLSYYVMDVWGQGTTVTVSS
VL: DIQLTQSPSFLSASVGDRVTITCWASQGISSYLAWYQQKPGKAPKLLIYSASTLQSGVPSRFSGSGSGTEFTLTISSLQPEDFATYYCQQLNSYPFTFGPGTKVDIK
OD450 Using Positive Control (recombinant Fel d1-His; [17]): 4.47 and 4.44 | OD450 Using Positive Control (recombinant Fel d1-His; [18]): 4.55 and 4.53 | OD450 Using Positive Control (recombinant Fel d1-His; [19]): 4.60

B4: SDAB22110-3-1-D9-1: anti-Fel d1 VHH clone, SEQ ID NO: 52 (protein)
VHH: AVQLVESGGGLVQPGGSLRLSCIISGFTSVSYSIVWFRQAPGKGREGVSCIGSSGGSTDYIDSVKGRFTISRDSAKNTVYLQMDCLKPEDTAVYYCAALRDVYRLCVIDYMNNDYWGQGTQVTVSS
EC50 (Fel D1): 12.940 µg/mL | Tagg ø (mean) [2, 20]: 42.78 | Tonset ø (mean) [2, 20]: 32.74 | Tm ø (mean), first melting point (Tm1) [2, 21]: 41.13 | Tm ø (mean), second melting point (Tm2) [2, 21]: 52.88 | Tagg ([2]; Replicate 1): 42.76 | Tonset ([2]; Replicate 1): 32.57 | Tm, first melting point (Tm1) [2, 22]: 41.01 | Tm, second melting point (Tm2) [2, 22]: 52.86 | Tagg ([2]; Replicate 2): 42.80 | Tonset ([2]; Replicate 2): 32.90 | Tm, first melting point (Tm1) [2, 23]: 41.25 | Tm, second melting point (Tm2) [2, 23]: 52.91 | Tagg ([2]; anti-Fel d1 VHH): 42.30 | Tm ([2]; anti-Fel d1 VHH, single melting point, in °C (unit assumed)): 47.50

B5: SDAB22110-2-G1 (peptide)
peptide: VVAFGIS
modifications: also: biotinylated, site not given here
notes: 7-amino acid peptide from a phage display library
OD450 [3]: 0.082 OD450 | OD450 [4]: 0.629 OD450 | OD450 [5]: 0.145 OD450 | OD450 [6]: 0.102 OD450 | OD450 [7]: 0.057 OD450 | OD450 [8]: 0.147 OD450 | OD450 [9]: 0.666 OD450 | OD450 [10]: 0.073 OD450 | OD450 [11]: 0.323 OD450 | OD450 [12]: 0.109 OD450 | OD450 [13]: 0.088 OD450 | OD450 [14]: 0.293 OD450 | OD450 [15]: 0.062 OD450 | OD450 [16]: 0.082 OD450
